Consider 1 molecule from US7125847 (RESEARCH FOUNDATION OF STATE UNIVERSITY OF NEW YORK AT …, dated 2006).

Where no end group is shown, it is not given here.

The experiment concerns the target stretch-activated channels (cationic SACs) of ventricular myocytes from rabbits with aortic … (rabbit). As to the kind of experiment: cell-based or functional assay.

B1: GsMTx-4 purified from Grammostola spatulata venom (peptide)
peptide: GCLEFWWKCNPNDDKCCRPKLKCSKLFKLCNFSSG-NH2
modifications: disulfide (positions not given here); not fully specified (bridges); also: 3 disulfides (ICK motif), pairing not given here
As to B1, the “myocyte cell volume reduction relative to that produced by 1.5 T saline” value is roughly 40%.
